Measured values published in article PMC9945957 (Proceedings of the National Academy of Sciences of the …, 2023).

T1: Shr^H1H2 (Shr residues S26 to Q285, both HIDs) (Streptococcus pyogenes, UniProt Q99YA0 26-285)
T1 sequence: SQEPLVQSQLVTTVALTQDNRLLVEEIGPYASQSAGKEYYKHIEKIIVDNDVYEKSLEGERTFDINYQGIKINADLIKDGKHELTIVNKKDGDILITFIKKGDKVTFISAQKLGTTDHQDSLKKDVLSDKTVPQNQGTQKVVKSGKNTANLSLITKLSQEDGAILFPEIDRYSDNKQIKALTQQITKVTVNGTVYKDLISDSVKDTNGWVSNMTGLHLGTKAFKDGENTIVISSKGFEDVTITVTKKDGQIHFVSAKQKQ

B1: human hemoglobin, heme-loaded (holo-Hb) (complex)
chain 1: not shown
chain 2: not shown
B2: Shr^H2 M238A (domain or fragment)
chain: NLSLITKLSQEDGAILFPEIDRYSDNKQIKALTQQITKVTVNGTVYKDLISDSVKDTNGWVSNATGLHLGTKAFKDGENTIVISSKGFEDVTITVTKKDGQIHFVSAKQKQ

What was measured:
[1] = molecular target: T1, Shr^H1H2 (Shr residues S26 to Q285, …); test: SEC-MALS + other: SEC-SAXS
[2] = molecular target: B1; test: NMR titration

Binder | stoichiometry N [1] [Shr^H1H2 per Hb tetramer] | binding result [2]
B1 | 2 | –
B2 | – | binds
